Test results from the DeepSol protein solubility set.

Experiment: soluble on expression in E. coli; label from the status in PepcDB or PDB records

Row | Sequence | soluble on expression in E. coli
1 | MESGSWRPPFSTGKIVGNYGLLKLYLEVAREKGRRDLVDKALISEDDVDMLRRLSASPGATAEDFVNALEERFVERVDPEVASEALARAGINVDGDTARRMIARILAGWLVEMGEEMKLYRLRRSWED | soluble
2 | DVTGLATGFRDLDKITTGLHPDQLIILAARPAVGKTAFVLNIAQNVGTKMNRPVAIFSLEMGAESLVDRMLASEGMVDAHNLRTGQLTEQDWQNITLAQGTLADAPIYIDDTPGIKVTEIRARARKLDQELEKGLGLIVIDYLQLITGTRPENRQQEVSDISRQLKILAKELGVPVIALSQLSRGVEQRQDKRPVLSDI | not soluble
3 | MGSDKIHHHHHHMDRIIEKLDHGWWVVSHEQKLWLPKGELPYGEAANFDLVGQRALQIGEWQGEPVWLVQQQRRHDMGSVRQVIDLDVGLFQLAGRGVQLAEFYRSHKYCGYCGHEMYPSKTEWAMLCSHCRERYYPQIAPCIIVAIRRDDSILLAQHTRHRNGVHTVLAGFVEVGETLEQAVAREVMEESGIKVKNLRYVTSQPWPFPQSLMTAFMAEYDSGDIVIDPKELLEANWYRYDDLPLLPPPGTVARRLIEDTVAMCRAEYE | soluble
4 | MGSDKIHHHHHHMMWEQFKKEKLRGYLEAKNQRKVDFDIVELLDLINSFDDFVTLSSCSGRIAVVDLEKPGDKASSLFLGKWHEGVEVSEVAEAALRSRKVAWLIQYPPIIHVACRNIGAAKLLMNAANTAGFRRSGVISLSNYVVEIASLERIELPVAEKGLMLVDDAYLSYVVRWANEKLLKGKEKLGRLQEALESLQRENAYCSD | soluble
5 | MESGPAVCCQDPRAELVDRVAAINVAHLEEADEGPEPARNGVDPPPRARAASVIPGSASRPTPVRPSLSARKFSLQERPAGSCLGAQVGPYSTGPASHISPRSWRRPTIESHRVAISDTEDCVQLNQYKLQSEIGKGAYGVVRLAYNESEDRHYAMKVLSKKKLLKQYGFPRRPPPRGSQATQGGPAKQLLPLERVYQEIAILKKLDHVNVVKLIEVLDDPAEDNLYLVFDLLRKGPVMEVPCDKPFPEEQARLYLRDIILGLEYLHCQKIVHRDIKPSNLLLGDDGHVKIADFGVSNQFEGNDAQLSSTAGTPAFMAPEAISDSGQSFSGKALDVWATGVTLYCFVYGKCPFIDDYILTLHRKIKNEAVVFPEEPEVSEDLKDLILRMLDKNPETRIGVSDIKLHPWVTKHGEEPLPSEEEHCSVVEVTEEEVKNSVRLIPSWTTVILVKSMLRKRSFGNPFEPQARREERSMSAPGSLLMKEGCGEGCKSPELPGVQEDEAAS | soluble
6 | MSLQEKQLKTIQNKIASWIKEIESAFIDELFSKIGPSKMLRSKLMLALLNEKTDAILLDKAFNLCAIVEMIQTASLLHDDVIDKAAMRRKLPSINALFGNFNAVMLGDVFYSKAFFELSKMGESIAKSLSNAVLRLSRGEIEDVFVGGSFNSDKQKYWRILEDKTAHFIEASLKSMAILLNKDAKMYADFGLNFGMAFQIIDDLLDITQDAKTLGKPNFSDFKEGKTTLPYLLLYEKLNQRDQGLLISYFKQDSHEIIEWTKEKFKQYGTIEETLKIAQVYSKKALEAIKGENNLILEKLAQDVIYRTFEGHHHHHH | soluble
7 | MSLASVQDLGKVEQAAPAQKLTVTIALSLRDRDAAARYLQEVHTPSSPNYHKFLTPSEFRARYAPTEASLAKVAARLQAAGLSVKRIGSTLLQVSGPAATVQKAFGAEVHVFQNKSVVQGAAARYTAPVRASTPGIDLSDVQAVIGLDSRPHFRPHLRQLPSHLQASMDKSASAVTNGNAPGKWTVTDLARHYNITPLYNKGIHGQGATIGIVTLASFTPSDAFQYWSSIGLATDPNRLTVVDIDGGPGAPSDDGGSSETTLDVEQSGGIAPDAKIIVYQAPNTTQGFVDAFAKAIESNAADTLSVSWGEWEWFDQQSQAVNPVNGKSANVLQTYHDLFLQAALQGQTMFAASGDSGAYDVNRAAPLPQYNKVLSVDSPANQQFITAAGATTVPTTLTFHPNGKEMKIKIPTERAWGWDYLNGLCKALGKDPVACGTFPVGDGGGVSSFIGRPFYQNWLPGMQNSPAGQQLVDSSQNPPQVIATLPANFKGRNVPDISMNGDPETGYVVYYTSSKTGFSIQTNNGGTSFVAPQLAGITALLNQSLGGRLGLLNFSLYGLVATGHGYQGFGRHGAPLRDITAGNNWGYNAHRGYDQATGVGAPDVANLDAALRRYFWFEGHHHHHH | not soluble
8 | GFILKRGWTVLESKYLDLLAQKYDCEEKVVTEIINLKAILNLPKGTEHFVSDLHGEYQAFQHVLRNGSGRVKEKIRDIFSGVIYDREIDELAALVYYPEDKLKLIKHDFDAKEALNEWYKETIHRMIKLVSYCSSKYTRSKLRKALPAQFAYITEELLYKTEQAGNKEQYYSEIIDQIIELGQADKLITGLAYSVQRLVVDHLHVVGDIYDRGPQPDRIMEELINYHSVDIQWGNHDVLWIGAYSGSKVCLANIIRICARYDNLDIIEDVYGINLRPLLNLAEKYYDDNPAFRPKADENRPEDEIKQITKIHQAIAMIQFKLESPIIKRRPNFNMEERLLLEKIDYDKNEITLNGKTYQLENTCFATINPEQPDQLLEEEAEVIDKLLFSVQHSEKLGRHMNFMMKKGSLYLKYNGNLLIHGCIPVDENGNMETMMIEDKPYAGRELLDVFERFLREAFAHPEETDDLATDMAWYLWTGEYSSLFGKRAMTTFERYFIKEKETHKEKKNPYYYLREDEATCRNILAEFGLNPDHGHIINGHTPVKEIEGEDPIKANGKMIVIDGGFSKAYQSTTGIAGYTLLYNSYGMQLVAHKHFNSKAEVLSTGTDVLTVKRLVDKELERKKVKETNVGEELLQEVAILESLREYRY | not soluble
9 | MSLHATMEDVAKLAGVSLKSVSRVINAEPHVSAKLRAKVEAAIAELNYVPDTAARSLAGSRAFIVGLLFDNPSPNYTMNIQKGVYETCRDQQHHLRIDNIDSTVPAEKFEAQLAAMVRNSRCDGFVLTPPLTDNVVLLDFLDRSGIRYVRIAPDIQPDRSPGVCIDDAAAAAAAARHLWELGHRRFAVVRGPASHGAAGRRRQGFIDELHRLGAENPIIEAEGNFSFESGIAAGAKVLAATPRPTAIFAANDDSAAGVMVACSQAGLKVPNDVSVCGFDDSWVAKSVWPYLTTVYQPIEEMGRAAAALLLRRDEPDNVLHELDFSLVVRASTAEGHHHHHH | soluble
10 | MKINTALGVAAGKSAHYLLSKMGRGSTYPGSLALKFDKDILDTIAKDYEIVVVTGTNGKTLTTALTVGILKEAFGQVVTNPSGANMITGIVSTFLTAKKSKSGKKIAVLEIDEASLPRITQYIKPSLFVFTNIFRDQMDRYGEIYTTYQMILDGAANAPQATILANGDSPLFNSKSVTNPVQFYGFNTDKHEPRLAHYNTEGILCPKCQAILTYRLNTYANLGDYTCPNCDFERPNLDYALTRLTHLTNTSSGFVIDGQQYNINVGGLYNIYNALAAVSVAEYFGVEPSQIKDGFDKSRAVFGRQETFTIGNKKCTLVLIKNPVGASQALDMIKLAPYPFSLSVLLNANYADGIDTSWIWDANFETILTMNIPEIFAGGVRHSEIARRLRVTGYDEKRIKQADKLQDIMTMIEQQETEHAYILATYTAMLEFREILANHNAIRKEMN | not soluble
11 | MTESSLDLGVIGNCSFGALVDRQARVVWSCLPAFDGDPAFCSLLSPKGEGGDFAVELEDFESSEQHYLPNTAVLRTVLRDSKGGEVEVIDFAPRWRNNGRFYRPVSIIRQIRPLAGNPRIVVRARPLADWGGRLEHHHHHH | not soluble
12 | MGHHHHHHGGHMSLTISLAKGQKVDLTKTNPGLSKVVVGLGWDTNKYDGGHDFDLDSSVFLLDAAGKCASPNDFIFYNQLEGGNGSVVHSGDNLTGAGEGDDENVKVNLSAVPANIDKISFVITIHDAEARSQNFGQVSNAFVRIVNEETNEELIRYDLAEDFSIETAIIAGELYRHNGEWKFSAIGSGYQGGLARIATDYGLQVGEGGS | soluble
13 | VVSIVDTLMFDTGRAEVKPDFQKKLVEIGEILKTIDNYIRIEGHTDNTPISNSQYASNIELGSARSNNVEHLFIDVSKIPVTQMYTVSYADTRPVADNNSEAGKARNRRVDIVILNSKFNAVEQESSGK | not soluble
14 | MGSDKIHHHHHHMKKAMVIINPTSGGEKALDYKEKLENKAKEYFEYVETKITEKALDATHFAEEASREQYDAVVVFGGDGTVNEVISGIDERDYIPKLGIIPGGTGNLITKLLEINQDIDGAIDELDFDLTNKIDIGKANDNYFGYIFSIGSLPEAIHNVEIEDKTKFGILTYAVNTMKSVMTDQVFNIKVETENGNYVGEASHVLVLLTNYFADKKIFEENKDGYANILILKDASIFSKLSVIPDLLKGDVVANDNIEYIKARNIKISSDSELESDVDGDKSDNLPVEIKVLAQRVEVFSKPKED | not soluble
15 | MGSDKIHHHHHHMKIVFMGTPEFAAAHLKEIVESGNKVAGVFSQPDRPKGRGQKVEPTPVKTVATNYGIPVFQPEKINSDEGFEKLSELSPDIIVVVAFGKLLKSGVINLPTIGCFNVHASLLPKYRGAAPIQRAIENGETKTGITIFKIDEGMDTGAIALKRELEIHPSDSFGSLYLKLAELGKKTLVHFLERVKEGRLELAPQDGIPSFAPKIQPEDLVISDLSDAAKVVNKIRAYDPQPGARVSVEGRISKVFGASLKCRNEGKGIVGEIVKIDDRGMIVSCGAENVIISLVQFPGKKPMRPKDALSGRLISEGIILGG | not soluble
16 | MGSDKIHHHHHHMDVMVRPSGMPAESGQEPMADGPVAAPFMRLSSKLRDDLYEEVRHDKTWHQRLTWSRGEWTPGSLTSLASRFERSLRWNKVKPEKENFDSPRPTIQSQSICREHLTGTAPEFLSEETLRILTEAVGSAQIKEAVIDMECWERTFLNSEGCSVTTQGKWFDFYASYNTGAALVRWRDGTSTQEEVSRLARPPLPILGRGVTWSEPRTIDTVRYDLVLLSPTASSVVIHELIGHGCEHFREKIVGLRVGPEELRVVAFPKNGSGFDDEGTPSEEIVLVENGIVRHAVRDRATGGMAPFSGLTKVASHGVKPGSRCTHLKAEGESSQEGVTGVPAERTVWIEHFSAANYHSGRAFFRSGLAWVGSREELLYPLMPFTMSIDIYELASLLWHLDGQTERARSGLCNKDGEFLPTFNFAPKIALRPVVSIRP | not soluble
17 | MGSDKIHHHHHHMSDVLAYSVPAPAVVFPPMSPAPRVVPIAVQAPRKDALGCTACSMRSICMPQGLTPTELQRIEALICPSRTIKQGETIYRANDSFQSIYVVRVGSFKTVVMHRDGREQVTGFHLAGDSLGLDGVCSGHHSCDAIALEDSKMCIIPFHLLETMCREVKAVQQHVHRMMGGEIVRESSQMMLLGTMSAEQRVAT | not soluble
18 | MADSIASIGNRYIDNNDTDMHFLRTWAVRRCQHTDWDICERIRLGELKEARDRAAQMEKTMRWWSSCTADWRNRWSAVRDERNRAREEAETLRLNYDLLLEEKRFLAEQLYHVDSESDEPKLEISQKPEIDGTKRNAVVQTIHSISCDPPSILVKSYSAAQIEAVLREPSVDEPPVETTKSDINEELKAENEFLKDQANELNKCREKIETDGKTIQDLRLRIQSMERELMAAKNSKRASSS | not soluble
19 | MGSDKIHHHHHHMIFSCPIDRSDVNEKLECEKGHKFGIIGGQIYDFLLKDVEVDKLLSRVIPIYESIWAPLGLLITSGKTYTSFLREIGEFIDGDLIIDVGTGTGKIFDFLNCKTCIGIDVSLRFLMYMKRKRTRVIAVRADANNLPLKSGIADGISSTLVLHMLSNPSFAIREMSRVLKSNGKCSIAVLANVNSIIGKTLSRWWKVNLRHYDYYINLLQENSLKVVERKELGPWEVINCIKIS | not soluble
20 | MGSDKIHHHHHHSDAGKDRRKKQKQKERQEDDDNNDEPAGGSEMGESGKAKDEKERTSVLEKQAGKKGDDESSSSEEDKEDEDEKKDNSTVIIREENEIIKAEKELDEEKVDQFRQSRVLRFTRSADEARVLPTDAAKFKRDTITQTLKSKELNDGVQLPLDKKPTATASTN | not soluble
